Laboratory results: patent publication US20260176659A1, “IMPROVED METHOD FOR THE PRODUCTION OF NATURAL VANILLIN” (BASE SE, priority 2022, published 2026)

Assays:
[1] = Bioconversion of eugenol to vanillin: one-pot concurrent cascade EUGO + alkene cleavage oxygenase (5 mM scale); format: biochemical; details: for Reaction composition at 24 hours (%) 1a / Reaction composition at 24 hours (%) 2a / Reaction composition at 24 hours (%) 3a / Reaction composition at 24 hours (%) 5a / Conversion of 1a to 3a (%): 5 mM 1a; for Conversion of 1a to 3a (%): 24 h; for Reaction composition after 24 hours 1a (%) / Reaction composition after 24 hours 2a (%) / Reaction composition after 24 hours 3a (%) / Reaction composition after 24 hours 5a (%): Table 8a, CO-XX FD-CFE 1 mg/mL; for Reaction composition after 24 hours 1a (%) / Reaction composition after 24 hours 2a (%) / Reaction composition after 24 hours 3a (%) / Reaction composition after 24 hours 5a (%) / Product distribution after 24 hours 2a (%) / Product distribution after 24 hours 3a (%) / Product distribution after 24 hours 5a (%): eugenol 5 mM; for Product distribution after 24 hours 2a (%) / Product distribution after 24 hours 3a (%) / Product distribution after 24 hours 5a (%): Table 8b, CO-0X FD-CFE 1 mg/mL
How it was run: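 Cell-free extracts of EUGO (0.5 mg) and cleavage oxygenase (3 mg) were combined with catalase, 1 mM FeSO4 and 1 mM ascorbate in glycine-NaOH pH 9.0 (or Tris-HCl pH 8.0). The cascade ran with 5 mM eugenol (5% ethanol/DMSO cosolvent) at 30° C and 120 rpm overnight. Methanol-quenched samples were analysed by HPLC at 280/340 nm.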

[2] = Biotransformation of isoeugenol to vanillin: pH and solvent screening; format: biochemical
Protocol: Stock solution of rac-isoeugenol (100 mM) was prepared in DMSO and stored at 4° C. Each reaction mixtures (1 mL) were set up as follows: rac-isoeugenol (50 μL, final concentration 5 mM) was diluted in various buffers (100 mM, pH 7.0-10.5) in 4 mL glass vials, together with FeSO4 (0.5 mM) and DMSO (150 μL; final concentration including the part from substrate stock: 20% v/v). The reaction was initiated by the addition of IECO (cell free extract 1 mg/mL). Wild type E. coli BL21 (DE3) was used as negative control. The reaction was incubated for 24 hours at 30° C. and 120 rpm (rotary shaker). To improve the oxygenation, the vials were placed horizontally. The reaction was quenched with methanol (2 vol. equiv.), centrifuged at 20238 g for 5-10 mins and analysed by HPLC.
Stock solutions of rac-isoeugenol (100 mM) were prepared in different solvents and stored in the dark at 4° C. Each reaction mixtures (1 mL) were set up as follows: ra-isoeugenol (50 μL, final concentration 5 mM) was diluted in Glycine-NaOH (100 mM, pH 9.5) in 4 mL glass vials, together with FeSO4 (0.5 mM) and the respective cosolvent (0, 50 or 150 μL; final content of cosolvent including the part from the substrate stock: 5, 10 and 20% v/v). The reaction was initiated by the addition of IECO (cell free extract 1 mg/mL). […] The reaction was quenched with methanol (2 vol. equiv.), centrifuged at 20238 g and analysed by HPLC.

[3] = EUGO 0 mg/mL, IECO fresh CFE 4 mg/mL, cosolvent DMSO 5% v/v
[4] = EUGO 0 mg/mL, IECO fresh CFE 4 mg/mL, cosolvent EtOH 5% v/v
[5] = EUGO FD-CFE 1 mg/mL (row prints 2, see doubts), IECO FD-CFE 4 mg/mL, pH 9.0, catalase 10 mg/mL
[6] = EUGO FD-CFE 1 mg/mL, IECO FD-CFE 4 mg/mL, pH 8.0, catalase 10 mg/mL
[7] = EUGO FD-CFE 1 mg/mL, IECO FD-CFE 6 mg/mL, pH 8.0, catalase 10 mg/mL
[8] = EUGO FD-CFE 1 mg/mL, IECO FD-CFE 6 mg/mL, pH 9.0, catalase 10 mg/mL
[9] = EUGO FD-CFE 2 mg/mL, IECO FD-CFE 4 mg/mL, pH 8.0, catalase 10 mg/mL
[10] = EUGO FD-CFE 2 mg/mL, IECO FD-CFE 4 mg/mL, pH 9.0, catalase 10 mg/mL
[11] = EUGO FD-CFE 2 mg/mL, IECO FD-CFE 6 mg/mL, pH 8.0, catalase 10 mg/mL
[12] = EUGO FD-CFE 2 mg/mL, IECO FD-CFE 6 mg/mL, pH 9.0, catalase 10 mg/mL
[13] = EUGO FD-CFE 5 mg/mL, IECO FD-CFE 20 mg/mL, pH 8.0, catalase 10 mg/mL
[14] = EUGO FD-CFE 5 mg/mL, IECO FD-CFE 20 mg/mL, pH 9.0, catalase 10 mg/mL
[15] = EUGO fresh CFE 1 mg/mL, IECO fresh CFE 4 mg/mL, cosolvent DMSO 5% v/v
[16] = EUGO fresh CFE 1 mg/mL, IECO fresh CFE 4 mg/mL, cosolvent EtOH 5% v/v
[17] = EUGO FD-CFE 1 mg/mL, catalase 10 mg/mL, pH 8.0
[18] = EUGO FD-CFE 1 mg/mL, catalase 10 mg/mL, pH 9.0
[19] = replicates of concurrent cascade with EUGO, pH 8.0, SD of four experiments
[20] = replicates of concurrent cascade with EUGO, pH 9.0, SD of four experiments

B1: IECO: isoeugenol cleavage oxygenase from Pseudomonas nitroreducens (GenBank: ACP17973), SEQ ID NO: 24 (protein, listed as Pseudomonas nitroreducens)
chain: MARLNRNDPQLVGTLLPTRIEADLFDLEVDGEIPKSINGTFYRNTPEPQVTPQKFHTFIDGDGMASAFHFEDGHVDFISRWVKTARFTAERLARKSLFGMYRNPYTDDTSVKGLDRTVANTSIISHHGKVLAVKEDGLPYELDPRTLETRGRFDYDGQVTSQTHTAHPKYDPETGDLLFFGSAAKGEATPDMAYYIVDKHGKVTHETWFEQPYGAFMHDFAITRNWSIFPIMPATNSLSRLKAKQPIYMWEPELGSYIGVLPRRGQGSQIRWLKAPALWVFHVVNAWEVGTKIYIDLMESEILPFPFPNSQNQPFAPEKAVPRLTRWEIDLDSSSDEIKRTRLHDFFAEMPIMDFRFALQCNRYGFMGVDDPRKPLAHQQAEKIFAYNSLGIWDNHRGDYDLWYSGEASAAQEPAFVPRSPTAAEGDGYLLTVVGRLDENRSDLVILDTQDIQSGPVATIKLPFRLRAALHGCWVPRP
For B1, the “Reaction composition at 24 hours (%) 1a” value [1, 3] was 97%, the “Reaction composition at 24 hours (%) 2a” value [1, 3] was 2≤ % and the “Reaction composition at 24 hours (%) 3a” value [1, 3] was 1≤ %. The “Reaction composition at 24 hours (%) 5a” value [1, 3] was 1≤ %, the “Conversion of 1a to 3a (%)” value [1, 3] was 1≤ % and the “Reaction composition at 24 hours (%) 1a” value [1, 4] was 97%. The “Reaction composition at 24 hours (%) 2a” value [1, 4] was 2≤ %, the “Reaction composition at 24 hours (%) 3a” value [1, 4] was 1≤ % and the “Reaction composition at 24 hours (%) 5a” value [1, 4] was 1≤ %. For the same molecule, the “Conversion of 1a to 3a (%)” value [1, 4] was 1≤ %, the “Reaction composition at 24 hours (%) 1a” value [1, 5] was 2% and the “Reaction composition at 24 hours (%) 2a” value [1, 5] was 3%. The “Reaction composition at 24 hours (%) 3a” value [1, 5] was 53%, the “Reaction composition at 24 hours (%) 5a” value [1, 5] was 1≤ % and the “Conversion of 1a to 3a (%)” value [1, 5] was 45%. The “Reaction composition at 24 hours (%) 1a” value [1, 6] was 1%, the “Reaction composition at 24 hours (%) 2a” value [1, 6] was 5% and the “Reaction composition at 24 hours (%) 3a” value [1, 6] was 45%. The “Reaction composition at 24 hours (%) 5a” value [1, 6] was 1≤ %, the “Conversion of 1a to 3a (%)” value [1, 6] was 40% and the “Reaction composition at 24 hours (%) 1a” value [1, 7] was 2%. For the same molecule, the “Reaction composition at 24 hours (%) 2a” value [1, 7] was 4%, the “Reaction composition at 24 hours (%) 3a” value [1, 7] was 49% and the “Reaction composition at 24 hours (%) 5a” value [1, 7] was 1%. For the same molecule, the “Conversion of 1a to 3a (%)” value [1, 7] was 44%, the “Reaction composition at 24 hours (%) 1a” value [1, 8] was 3% and the “Reaction composition at 24 hours (%) 2a” value [1, 8] was 3%. For the same molecule, the “Reaction composition at 24 hours (%) 3a” value [1, 8] was 59%, the “Reaction composition at 24 hours (%) 5a” value [1, 8] was 1% and the “Conversion of 1a to 3a (%)” value [1, 8] was 50%. For the same molecule, the “Reaction composition at 24 hours (%) 1a” value [1, 9] was 2%, the “Reaction composition at 24 hours (%) 2a” value [1, 9] was 4% and the “Reaction composition at 24 hours (%) 3a” value [1, 9] was 48%. For the same molecule, the “Reaction composition at 24 hours (%) 5a” value [1, 9] was 2%, the “Conversion of 1a to 3a (%)” value [1, 9] was 40% and the “Reaction composition at 24 hours (%) 1a” value [1, 10] was 1%. The “Reaction composition at 24 hours (%) 2a” value [1, 10] was 4%, the “Reaction composition at 24 hours (%) 3a” value [1, 10] was 52% and the “Reaction composition at 24 hours (%) 5a” value [1, 10] was 2%. The “Conversion of 1a to 3a (%)” value [1, 10] was 44%, the “Reaction composition at 24 hours (%) 1a” value [1, 11] was 3% and the “Reaction composition at 24 hours (%) 2a” value [1, 11] was 5%. The “Reaction composition at 24 hours (%) 3a” value [1, 11] was 44%, the “Reaction composition at 24 hours (%) 5a” value [1, 11] was 3% and the “Conversion of 1a to 3a (%)” value [1, 11] was 41%. For the same molecule, the “Reaction composition at 24 hours (%) 1a” value [1, 12] was 3%, the “Reaction composition at 24 hours (%) 2a” value [1, 12] was 4% and the “Reaction composition at 24 hours (%) 3a” value [1, 12] was 50%. The “Reaction composition at 24 hours (%) 5a” value [1, 12] was 2%, the “Conversion of 1a to 3a (%)” value [1, 12] was 49% and the “Reaction composition at 24 hours (%) 1a” value [1, 13] was 1≤ %. For the same molecule, the “Reaction composition at 24 hours (%) 2a” value [1, 13] was 27%, the “Reaction composition at 24 hours (%) 3a” value [1, 13] was 9% and the “Reaction composition at 24 hours (%) 5a” value [1, 13] was 6%. For the same molecule, the “Conversion of 1a to 3a (%)” value [1, 13] was 8%, the “Reaction composition at 24 hours (%) 1a” value [1, 14] was 1≤ % and the “Reaction composition at 24 hours (%) 2a” value [1, 14] was 18%. For the same molecule, the “Reaction composition at 24 hours (%) 3a” value [1, 14] was 15%, the “Reaction composition at 24 hours (%) 5a” value [1, 14] was 5% and the “Conversion of 1a to 3a (%)” value [1, 14] was 13%. For the same molecule, the “Reaction composition at 24 hours (%) 1a” value [1, 15] was 3%, the “Reaction composition at 24 hours (%) 2a” value [1, 15] was 49% and the “Reaction composition at 24 hours (%) 3a” value [1, 15] was 44 ^ %. The “Reaction composition at 24 hours (%) 5a” value [1, 15] was 4%, the “Conversion of 1a to 3a (%)” value [1, 15] was 42 ^ % and the “Reaction composition at 24 hours (%) 1a” value [1, 16] was 4%. The “Reaction composition at 24 hours (%) 2a” value [1, 16] was 5%, the “Reaction composition at 24 hours (%) 3a” value [1, 16] was 86 ^ % and the “Reaction composition at 24 hours (%) 5a” value [1, 16] was 5%. The “Conversion of 1a to 3a (%)” value [1, 16] was 48 ^ %, the “Reaction composition after 24 hours 1a (%)” value [1, 17] was 51% and the “Reaction composition after 24 hours 2a (%)” value [1, 17] was 52%. For the same molecule, the “Reaction composition after 24 hours 3a (%)” value [1, 17] was 36%, the “Reaction composition after 24 hours 5a (%)” value [1, 17] was 12% and the “Reaction composition after 24 hours 1a (%)” value [1, 18] was no more than 1%. For the same molecule, the “Reaction composition after 24 hours 2a (%)” value [1, 18] was 24%, the “Reaction composition after 24 hours 3a (%)” value [1, 18] was 59% and the “Reaction composition after 24 hours 5a (%)” value [1, 18] was 18%. For the same molecule, the “Product distribution after 24 hours 2a (%)” value [1, 17] was 67.8%, the “Product distribution after 24 hours 3a (%)” value [1, 17] was 17.6% and the “Product distribution after 24 hours 5a (%)” value [1, 17] was 14.6%. The “Product distribution after 24 hours 2a (%)” value [1, 18] was 49.4%, the “Product distribution after 24 hours 3a (%)” value [1, 18] was 30.7% and the “Product distribution after 24 hours 5a (%)” value [1, 18] was 19.9%. The “Conversion of 1a to 3a (%)” value [1, 19] was 31 ± 2%, the “Reaction composition at 24 hours (%) 1a” value [1, 19] was 1≤ % and the “Reaction composition at 24 hours (%) 2a” value [1, 19] was 51 ± 2%. The “Reaction composition at 24 hours (%) 3a” value [1, 19] was 34 ± 2%, the “Reaction composition at 24 hours (%) 5a” value [1, 19] was 15 ± 3% and the “Conversion of 1a to 3a (%)” value [1, 20] was 52 ± 3%. The “Reaction composition at 24 hours (%) 1a” value [1, 20] was 1≤ %, the “Reaction composition at 24 hours (%) 2a” value [1, 20] was 22 ± 2% and the “Reaction composition at 24 hours (%) 3a” value [1, 20] was 59 ± 1%. For the same molecule, the “Reaction composition at 24 hours (%) 5a” value [1, 20] was 18 ± 1%, the “overall conversion of 1a to vanillin 3a in the 2-step cascade” value ([1]; with EUGO, 5 mM substrate concentration) was 50% and the “pH optimum of activity toward isoeugenol” value ([2]; rac-isoeugenol 5 mM, buffers pH 7.0-10.5) was 9.0. The “cosolvent tolerance, activity toward isoeugenol” value ([2]; solvent screening 5, 10 and 20% v/v) was “tolerates a panel of cosolvents, with a preference for ethanol and DMSO”.
